Measurements reported in patent US20060183687A1 (WALTER AND ELIZA HALL INSTITUTE OF MEDICAL RESEARCH, published 2006).
Where a chain is given by its changes, count along the chain named. In names and notes the source's numbering stands.

T1: Epstein-Barr virus BHRF-1 protein (Epstein-Barr virus, UniProt P03182 1-191)
T1 sequence: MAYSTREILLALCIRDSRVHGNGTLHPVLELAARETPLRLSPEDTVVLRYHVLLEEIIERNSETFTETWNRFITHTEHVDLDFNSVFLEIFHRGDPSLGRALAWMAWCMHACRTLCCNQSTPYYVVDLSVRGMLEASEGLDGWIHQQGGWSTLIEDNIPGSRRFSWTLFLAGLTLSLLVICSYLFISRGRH

B1: EE-tagged BimL (Glu-Glu epitope-tagged mouse BimL) (other)
chain: EYMPMEMAKQPSDVSSECDREGGQLQPAERPPQLRPGAPTSLQTEPQDRSPAPMSCDKSTQTPSPPCQAFNHYLSAMASIRQSQEEPEDLRPEIRIAQELRRIGDEFNETYTRRVFANDYREAEDHPQMVILQLLRFIFRLVWRRH
notes: N-terminal EE tag from a pEF vector derivative; also called EE-BimL; EE BimL
B2: EE-tagged BimS (other)
chain: EYMPMEMAKQPSDVSSECDREGGQLQPAERPPQLRPGAPTSLQTEPQASIRQSQEEPEDLRPEIRIAQELRRIGDEFNETYTRRVFANDYREAEDHPQMVILQLLRFIFRLVWRRH
B3: murine BimL (wild-type) (other)
chain: MAKQPSDVSSECDREGGQLQPAERPPQLRPGAPTSLQTEPQDRSPAPMSCDKSTQTPSPPCQAFNHYLSAMASIRQSQEEPEDLRPEIRIAQELRRIGDEFNETYTRRVFANDYREAEDHPQMVILQLLRFIFRLVWRRH
notes: also called wild-type BimL; mBIM L
B4: BimL double mutant T54I/N65S (other)
chain: B3 chain with T54I, N65S
notes: also called T541/N65S; double mutant T541/N65S
B5: BimL mutant D51G (other)
chain: B3 chain with D51G
notes: also called D51G mutant
B6: BimL mutant S53P (other)
chain: B3 chain with S53P
B7: BimL mutant T54A (other)
chain: B3 chain with T54A
B8: EE-tagged BimEL (other)
chain: EYMPMEMAKQPSDVSSECDREGGQLQPAERPPQLRPGAPTSLQTEPQGNPDGEGDRCPHGSPQGPLAPPASPGPFATRSPLFIFVRRSSLLSRSSSGYFSFDTDRSPAPMSCDKSTQTPSPPCQAFNHYLSAMASIRQSQEEPEDLRPEIRIAQELRRIGDEFNETYTRRVFANDYREAEDHPQMVILQLLRFIFRLVWRRH
B9: EE-BimL ΔBH3 mutant (other)
chain: EYMPMEMAKQPSDVSSECDREGGQLQPAERPPQLRPGAPTSLQTEPQDRSPAPMSCDKSTQTPSPPCQAFNHYLSAMASIRQSQEEPEDLRPEIRIAQEALFNETYTRRVFANDYREAEDHPQMVILQLLRFIFRLVWRRH
notes: also called EE-Bim ΔBH3

Legend:
[1] = molecular target: T1, Epstein-Barr virus BHRF-1 protein; assay: immunoprecipitation from co-transfected 293T cells
human Bcl-2 [2] = molecular target: T2, human Bcl-2 (human, UniProt P10415 1-239); assay: immunoprecipitation and immunoblot from FDC-P1 cells (FIG. 8B)
T2 construct: also called wt Bcl-2
T2 sequence (P10415 whole entry): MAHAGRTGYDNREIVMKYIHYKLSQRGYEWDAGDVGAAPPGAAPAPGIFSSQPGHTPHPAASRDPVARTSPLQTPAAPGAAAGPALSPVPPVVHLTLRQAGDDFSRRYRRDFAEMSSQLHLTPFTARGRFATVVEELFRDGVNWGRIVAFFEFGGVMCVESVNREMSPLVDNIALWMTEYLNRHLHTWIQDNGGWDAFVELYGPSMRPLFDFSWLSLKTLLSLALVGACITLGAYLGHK

human Bcl-2 [3] = molecular target: T2, human Bcl-2; assay: immunoprecipitation with anti-human Bcl-2 from FDC-P1 cells, anti-EE immunoblot
human Bcl-2 [4] = molecular target: T2, human Bcl-2; assay: yeast two-hybrid, beta-galactosidase activity with ONPG
dynein light chain = molecular target: T3, dynein light chain (UniProt P63167 1-89, limits assumed); assay: yeast two-hybrid, beta-galactosidase activity with ONPG; reference wild-type BimL
T3 construct: also called cytoplasmic dynein light chain
T3 sequence (P63167 whole entry): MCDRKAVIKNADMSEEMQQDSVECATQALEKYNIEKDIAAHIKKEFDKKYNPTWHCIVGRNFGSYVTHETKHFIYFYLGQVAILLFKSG

human Bcl-2 [5] = molecular target: T2, human Bcl-2; assay: immunoprecipitation and immunoblot from FDC-P1 cells

Row | Binder | binding result (human Bcl-2 [4]) | activity compared to wild-type BimL (dynein light chain) [%] | also measured
1 | B1 | – | – | binding result [1]: no binding; binding result (human Bcl-2 [2]): binds
2 | B2 | – | – | binding result (human Bcl-2 [3]): binds
3 | B3 | binds | – | –
4 | B4 | binds | < 0.1 | –
5 | B5 | binds | – | –
6 | B6 | binds | < 0.1 | –
7 | B7 | binds | < 0.1 | –
8 | B8 | – | – | binding result (human Bcl-2 [3]): binds
9 | B9 | – | – | binding result (human Bcl-2 [5]): no binding
